Data as given in PMC10449631 (Nature Chemical Biology, 2023).
“And” between values parts separate entries of the source, which are not always exact repeats. Equal entries are not always repeated. No end group written: not given here.

Tests used:
PaAP = biological target: T1, PaAP (Pseudomonas aeruginosa, UniProt Q02PA2, A513L/Q514V/S515P); assay: Peptide digestion assay (overnight and time course, LC-MS/MALDI); assay type: biochemical; settings: for substrate of / degraded by PaAP (words): incubated with PaAP overnight, LC–MS or MALDI; for P0 (parent peptide, LC–MS signal): 500 μM peptide, 1 μM PaAP_T
T1 construct: PaAP (WT, residues 27–536); His6 (TEV cleavable) (N, cleaved yes); made in house; host or cells: E. coli SHuffle T7
T1 sequence (Q02PA2 37-516 A513L/Q514V/S515P): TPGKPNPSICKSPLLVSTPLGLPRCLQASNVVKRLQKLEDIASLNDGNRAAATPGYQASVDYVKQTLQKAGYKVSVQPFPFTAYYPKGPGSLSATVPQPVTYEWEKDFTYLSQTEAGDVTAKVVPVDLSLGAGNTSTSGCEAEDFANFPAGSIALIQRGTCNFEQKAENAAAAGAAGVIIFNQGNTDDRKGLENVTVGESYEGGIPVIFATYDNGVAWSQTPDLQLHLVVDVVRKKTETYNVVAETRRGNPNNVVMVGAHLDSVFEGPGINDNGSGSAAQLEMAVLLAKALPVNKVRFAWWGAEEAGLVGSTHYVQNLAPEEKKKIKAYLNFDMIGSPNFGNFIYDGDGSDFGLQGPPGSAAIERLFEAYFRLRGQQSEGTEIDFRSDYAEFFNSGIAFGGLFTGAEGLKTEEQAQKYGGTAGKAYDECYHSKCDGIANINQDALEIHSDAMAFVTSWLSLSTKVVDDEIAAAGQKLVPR
Method: A variety of peptides of varying lengths and compositions were incubated with PaAP at room temperature. Assays were performed by incubating (overnight at room temperature) 500 μM of substrate (peptides) with 1 μM enzyme (PaAP) in reaction buffer (50 mM Tris, pH 8.5, 100 mM NaCl). The reactions were quenched by heating to 100 °C for 10 min followed by centrifugation at 17,000g in a benchtop centrifuge to remove precipitate. Supernatant was collected and samples were analyzed by LC–MS. Initial trial assays were carried out in the presence and absence (control) of enzyme to determine if the substrate was degraded (single or triplicate experiments). Time-course assays were performed on selected peptide substrates in triplicate. A 300 μl reaction (including 500 μM of substrate) was initiated by the addition of 1 μM enzyme. The reaction was incubated at room temperature. The reaction was quenched at set timepoints by the removal of 30 μl aliquots, which were immediately heated to 100 °C for 10 min. The samples were analyzed by LC–MS using a Xevo Q-ToF (Waters) as described below, searching for masses of all peptide breakdown products.
Peptide degradation time courses were fitted to exponential equations as follows:
P0 peptide consumption was fitted to a single exponential equation (equation (2)) with the format2 yt=y0−Plateaue^−kt+Plateau
Time courses for the formation and decay of peptide intermediates were fitted to double exponential equations (equation (3)) and single exponential equations, followed by a linear phase (4)3 yt=y0−Plateau1e^−k1t+y0−Plateau2e^−k2t+Plateau 4 yt=y0−Plateaue^−kt+vt+Plateau where y(t) is the product formed at time t, y0 − Plateau is the amplitude of the exponential phase, k is the observed rate constant for the exponential phase, y0 is the value of y at time 0, Plateau is the value of y after exponential phase, C is the offset and v is the slope of the linear phase.
Peptide samples incubated in the presence and absence of PaAP were initially analyzed by MALDI. The peptide sample (0.5 µl at 10 µM) was spotted along with matrix (0.5 µl 10 mg ml^−1 α-cyano-4-hydroxycinnamic acid in ACN/0.1% TFA (50/50, vol/vol)) on a stainless steel MALDI plate and left to dry. The sample plate was loaded into a Sciex 4800 MALDI mass spectrometer. The laser voltage was adjusted to give a good signal to noise strength, and 50 shots were acquired in a random pattern across the spot and spectra combined. The spectra were externally calibrated with Sciex Pepcal mix (range: 500–4,000 m/z).

[1] = biological target: T2, PaAP_T (P. aeruginosa aminopeptidase, C-terminal truncated) (Pseudomonas aeruginosa, UniProt Q02PA2); assay: Inhibition of PaAP_T in the Leu-pNA aminopeptidase assay (KI, IC50); assay type: biochemical; settings: for IC50 plot data (PaAP_T activity at given peptide concentration): (S) = 2 mM, PaAP 100 nM
T2 construct: PaAP (WT, residues 27–536); His6 (TEV cleavable) (N, cleaved yes); made in house; host or cells: E. coli SHuffle T7
T2 sequence (Q02PA2 whole entry, looked up): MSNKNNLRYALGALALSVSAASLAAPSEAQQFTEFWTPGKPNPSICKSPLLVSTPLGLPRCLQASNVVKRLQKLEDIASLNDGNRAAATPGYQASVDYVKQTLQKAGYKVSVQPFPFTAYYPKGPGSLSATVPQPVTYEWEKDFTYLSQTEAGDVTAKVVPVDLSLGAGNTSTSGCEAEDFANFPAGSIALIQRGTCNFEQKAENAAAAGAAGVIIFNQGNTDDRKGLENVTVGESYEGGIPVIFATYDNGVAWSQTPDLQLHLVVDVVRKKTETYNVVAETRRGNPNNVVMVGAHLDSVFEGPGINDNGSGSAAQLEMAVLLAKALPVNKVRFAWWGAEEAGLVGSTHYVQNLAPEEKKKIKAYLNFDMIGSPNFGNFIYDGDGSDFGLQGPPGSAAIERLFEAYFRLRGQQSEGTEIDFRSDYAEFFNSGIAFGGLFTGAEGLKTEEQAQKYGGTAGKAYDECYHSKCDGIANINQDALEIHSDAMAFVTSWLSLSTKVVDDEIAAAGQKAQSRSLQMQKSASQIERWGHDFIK
Method: Aminopeptidase activity was determined spectrophotometrically primarily using amino Leu-pNA. Other commercially available pNA substrates (isoleucine, methionine, alanine, valine, proline, arginine, lysine and phenylalanine) were also assayed. Leu-pNA was incubated with enzyme (100 nM) in assay buffer (50 mM Tris, pH 8.5, 200 mM NaCl) at 25 °C. A pNA release caused an absorbance increase at 405 nm, monitored using a BMG Labtech plate reader. […] Data were plotted in GraphPad Prism (version 9) and the Michalis Menten equation was used for fitting.
Inhibition assays were carried out with the following peptides: linear-ERWGHDFIK (PaAP C-terminal residues), cyclic-ERWGHDFIK, N-acetylated and C-amidated ERWGHDFIK. IC50 values were determined by varying peptide concentration at a fixed substrate concentration (fixed at KM, (S) = 2 mM, PaAP concentration was 100 nM). […] KI values were determined by fitting the data to equation (1) (Morrison’s equation):1 v=1−Et+I+KI−Et+I+KI^2−4EtIKI/2Et where v is the velocity, Et is the total enzyme concentration, I is the concentration of inhibitor and KI is the equilibrium dissociation constant for the inhibitor. IC50 values increased when measured at increasing S, consistent with competitive inhibition.

Substance | substrate of / degraded by PaAP (words) (PaAP) | IC50 plot data (PaAP_T activity at given peptide concentration) ([1]; log(I) 0) | IC50 plot data (PaAP_T activity at given peptide concentration) ([1]; log(I) 0.39794) | IC50 plot data (PaAP_T activity at given peptide concentration) ([1]; log(I) 0.69897) | IC50 plot data (PaAP_T activity at given peptide concentration) ([1]; log(I) 1) | IC50 plot data (PaAP_T activity at given peptide concentration) ([1]; log(I) 1.39794) | IC50 plot data (PaAP_T activity at given peptide concentration) ([1]; log(I) 1.69897) | IC50 plot data (PaAP_T activity at given peptide concentration) ([1]; log(I) 2) | IC50 plot data (PaAP_T activity at given peptide concentration) ([1]; log(I) 2.39794) | IC50 plot data (PaAP_T activity at given peptide concentration) ([1]; log(I) -0.30103) | IC50 plot data (PaAP_T activity at given peptide concentration) ([1]; log(I) -0.60206) | IC50 plot data (PaAP_T activity at given peptide concentration) ([1]; log(I) -1) | IC50 plot data (PaAP_T activity at given peptide concentration) ([1]; log(I) -1.30103) | also measured
RYLGYL: casein-derived peptide (UniProt P02662 105-110, looked up, fragment) [reference compound] | capable of processing |  |  |  |  |  |  |  |  |  |  |  |  | 
Ac-ERWGHDFIK: N-terminally acetylated ERWGHDFIK | is not a substrate | 14.1847 and 14.0241 and 15.9398 | 10.4257 and 10.2008 and 11.7831 | 7.759 and 8.43 and 9.606 | 6.157 and 6.578 and 7.803 | 4.438 and 4.522 and 4.703 | 3.468 and 3.7992 and 3.497 | 2.457 and 2.349 and 2.539 | 1.727 and 1.944 and 1.78 | 21.8755 and 21.5663 and 25.7068 | 31.9277 and 31.253 and 35.5141 | 57.8715 and 59.5181 and 63.1727 | 96.8273 and 103.173 | IC50 relative to unmodified linear ERWGHDFIK ([1]; Leu-pNA assay): stronger inhibitor (lower IC50)
ERLGHDFIK [… peptide with W replaced by L] |  |  |  |  |  |  |  |  |  |  |  |  |  | P0 (parent peptide, LC–MS signal) (PaAP; time 0 minutes): 242839 and 266621 and 225820; P0 (parent peptide, LC–MS signal) (PaAP; time 5 minutes): 120859 and 126339 and 82871.9; P0 (parent peptide, LC–MS signal) (PaAP; time 10 minutes): 45005.2 and 53825.2 and 41072.7; P0 (parent peptide, LC–MS signal) (PaAP; time 30 minutes): 28627.8 and 28689.7 and 21100.6; P0 (parent peptide, LC–MS signal) (PaAP; time 60 minutes): 29596.5 and 28748.7 and 27907.5; P0 (parent peptide, LC–MS signal) (PaAP; time 90 minutes): 29084.8 and 28644.1 and 25592.5; P0 (parent peptide, LC–MS signal) (PaAP; time 120 minutes): 30548.5 and 27618.8 and 28168.1; P0 (parent peptide, LC–MS signal) (PaAP; time 180 minutes): 31516.5 and 29951.1 and 28383.1; P0 (parent peptide, LC–MS signal) (PaAP; time 1220 minutes): 25934 and 29596.2 and 25678.6; relative rate of degradation by PaAP (PaAP; time-course assay, LC–MS): degraded at a faster rate than ERWGHDFIK
ERWGHDFIK (head-to-tail): ERWGHDFIK peptide cyclized head-to-tail (head-to-tail cyclized) |  | 101.617 and 102.323 and 98.6769 | 100.735 and 102.44 and 95.9718 | 96.6774 and 96.207 and 104.322 | 101.558 and 102.323 and 97.1479 | 95.7365 and 95.8542 and 103.44 | 85.1514 and 85.6807 and 79.6236 | 68.1564 and 67.5684 and 61.9818 | 37.6478 and 35.5307 and 32.0024 | 93.6783 and 96.7951 and 93.6195 | 99.853 and 100.676 and 98.5004 | 98.7357 and 97.5007 and 102.499 | 86.6216 and 85.5631 and 74.2723 | inhibition of PaAP_T ([1]; Leu-pNA assay): very poor inhibitors
